According to US20150344570A1 (published 2015):

T1: FcγRIIa R (FcγRIIa allotype with Arg at position 131), extracellular domain with C-terminal His tag (human, UniProt P12318 34-217)
T1 construct: extracellular domain; made in FreeStyle293 cells; analyte in the Biacore assay; also called FcγRIIa type R; 2aR
T1 sequence (looked up): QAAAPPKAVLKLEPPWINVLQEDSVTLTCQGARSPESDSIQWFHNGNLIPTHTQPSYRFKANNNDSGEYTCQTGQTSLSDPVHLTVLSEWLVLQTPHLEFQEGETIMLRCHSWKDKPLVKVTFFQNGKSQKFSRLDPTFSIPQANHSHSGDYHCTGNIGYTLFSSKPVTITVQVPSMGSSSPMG

T2: FcγRIIb, extracellular domain with C-terminal His tag (human, UniProt P31994 43-217)
T2 construct: extracellular domain; made in FreeStyle293 cells; analyte in the Biacore assay; also called 2b; FcgRIIb
T2 sequence (looked up): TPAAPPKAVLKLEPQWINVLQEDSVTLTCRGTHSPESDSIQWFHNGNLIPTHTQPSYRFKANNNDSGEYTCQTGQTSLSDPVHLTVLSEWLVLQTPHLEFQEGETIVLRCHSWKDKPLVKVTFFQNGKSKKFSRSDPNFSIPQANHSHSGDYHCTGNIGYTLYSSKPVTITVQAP

T3: FcγRIIb, extracellular domain with C-terminal His tag (human, UniProt P31994 43-217)
T3 construct: extracellular domain; also called 2b; FcgRIIb; not shown: His tag at the C terminus
T3 sequence (looked up): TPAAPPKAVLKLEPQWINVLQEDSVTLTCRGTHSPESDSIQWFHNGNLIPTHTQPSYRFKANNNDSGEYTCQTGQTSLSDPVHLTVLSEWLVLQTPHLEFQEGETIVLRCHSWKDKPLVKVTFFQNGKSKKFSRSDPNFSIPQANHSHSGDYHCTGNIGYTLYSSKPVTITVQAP


Legend:
[1] = target: T1, FcγRIIa R (FcγRIIa allotype with Arg at …); experiment: SPR (Biacore), antibody captured, FcγR analyte; vs GpH7-A5/GpH7-B3/GpL16-k0 = 100
[2] = target: T2, FcγRIIb, extracellular domain with …; experiment: as above
[3] = target: T3, FcγRIIb, extracellular domain with …; experiment: SPR (Biacore), relative binding, GpH7-A5/GpH7-B3/GpL16-k0 = 100

Binder | He/Con_2aR [1] | He/Con_2b [2] | He/Con_2b [3]
GpH7-A5/GpH7-B3 variant T335_02A/GpL16-k0 (antibody, human IgG1, kappa, heterodimerized IgG1, mutation in one H chain only; also called He Ab) heavy 1: not shown heavy 2: not shown light: DIVMTQSPLSLPVTPGEPASISCQASESLVHSNRNTYLHWYLQKPGQSPQLLIYKVSNRFSGVPDRFSGSGSGTDFTLKISRVEAEDVGVYYCSQNTHVPPTFGQGTKVEIERTVAAPSVFIFPPSDEQLKSGTASVVCLLNNFYPREAKVQWKVDNALQSGNSQESVTEQDSKDSTYSLSSTLTLSKADYEKHKVYACEVTHQGLSSPVTKSFNRGEC | 102 relative (HeCon Ab = 100) | 94 relative (HeCon Ab = 100) | –
GpH7-A5/GpH7-B3 variant Y296_14T/GpL16-k0 (antibody, human IgG1, kappa, heterodimerized IgG1, mutation in one H chain only; also called He Ab) heavy 1: not shown heavy 2: not shown light: DIVMTQSPLSLPVTPGEPASISCQASESLVHSNRNTYLHWYLQKPGQSPQLLIYKVSNRFSGVPDRFSGSGSGTDFTLKISRVEAEDVGVYYCSQNTHVPPTFGQGTKVEIERTVAAPSVFIFPPSDEQLKSGTASVVCLLNNFYPREAKVQWKVDNALQSGNSQESVTEQDSKDSTYSLSSTLTLSKADYEKHKVYACEVTHQGLSSPVTKSFNRGEC | 103 relative (HeCon Ab = 100) | 88.2 relative (HeCon Ab = 100) | –
GpH7-A5/GpH7-B3 variant Y296_19Q/GpL16-k0 (antibody, human IgG1, kappa, heterodimerized IgG1, mutation in one H chain only; also called He Ab) heavy 1: not shown heavy 2: not shown light: DIVMTQSPLSLPVTPGEPASISCQASESLVHSNRNTYLHWYLQKPGQSPQLLIYKVSNRFSGVPDRFSGSGSGTDFTLKISRVEAEDVGVYYCSQNTHVPPTFGQGTKVEIERTVAAPSVFIFPPSDEQLKSGTASVVCLLNNFYPREAKVQWKVDNALQSGNSQESVTEQDSKDSTYSLSSTLTLSKADYEKHKVYACEVTHQGLSSPVTKSFNRGEC | 102 relative (HeCon Ab = 100) | 89.3 relative (HeCon Ab = 100) | –
GpH7-A5/GpH7-B3 variant Y296_04F/GpL16-k0 (antibody, human IgG1, kappa, heterodimerized IgG1, mutation in one H chain only; also called He Ab) heavy 1: not shown heavy 2: not shown light: DIVMTQSPLSLPVTPGEPASISCQASESLVHSNRNTYLHWYLQKPGQSPQLLIYKVSNRFSGVPDRFSGSGSGTDFTLKISRVEAEDVGVYYCSQNTHVPPTFGQGTKVEIERTVAAPSVFIFPPSDEQLKSGTASVVCLLNNFYPREAKVQWKVDNALQSGNSQESVTEQDSKDSTYSLSSTLTLSKADYEKHKVYACEVTHQGLSSPVTKSFNRGEC | 109 relative (HeCon Ab = 100) | 99.2 relative (HeCon Ab = 100) | –
GpH7-A5/GpH7-B3 variant Y296_10E/GpL16-k0 (antibody, human IgG1, kappa, heterodimerized IgG1, mutation in one H chain only; also called He Ab) heavy 1: not shown heavy 2: not shown light: DIVMTQSPLSLPVTPGEPASISCQASESLVHSNRNTYLHWYLQKPGQSPQLLIYKVSNRFSGVPDRFSGSGSGTDFTLKISRVEAEDVGVYYCSQNTHVPPTFGQGTKVEIERTVAAPSVFIFPPSDEQLKSGTASVVCLLNNFYPREAKVQWKVDNALQSGNSQESVTEQDSKDSTYSLSSTLTLSKADYEKHKVYACEVTHQGLSSPVTKSFNRGEC | 103 relative (HeCon Ab = 100) | 98 relative (HeCon Ab = 100) | –
GpH7-A5/GpH7-B3 variant Y296_18N/GpL16-k0 (antibody, human IgG1, kappa, heterodimerized IgG1, mutation in one H chain only; also called He Ab) heavy 1: not shown heavy 2: not shown light: DIVMTQSPLSLPVTPGEPASISCQASESLVHSNRNTYLHWYLQKPGQSPQLLIYKVSNRFSGVPDRFSGSGSGTDFTLKISRVEAEDVGVYYCSQNTHVPPTFGQGTKVEIERTVAAPSVFIFPPSDEQLKSGTASVVCLLNNFYPREAKVQWKVDNALQSGNSQESVTEQDSKDSTYSLSSTLTLSKADYEKHKVYACEVTHQGLSSPVTKSFNRGEC | 104 relative (HeCon Ab = 100) | 91.5 relative (HeCon Ab = 100) | –
GpH7-A5/GpH7-B3 variant S267_12R/GpL16-k0 (antibody, human IgG1, kappa, He Ab; alteration in one H chain only; also called He Ab) heavy 1: not shown heavy 2: not shown light: DIVMTQSPLSLPVTPGEPASISCQASESLVHSNRNTYLHWYLQKPGQSPQLLIYKVSNRFSGVPDRFSGSGSGTDFTLKISRVEAEDVGVYYCSQNTHVPPTFGQGTKVEIERTVAAPSVFIFPPSDEQLKSGTASVVCLLNNFYPREAKVQWKVDNALQSGNSQESVTEQDSKDSTYSLSSTLTLSKADYEKHKVYACEVTHQGLSSPVTKSFNRGEC | – | – | 11.3 % of control
GpH7-A5/GpH7-B3 variant T335_05P/GpL16-k0 (antibody, human IgG1, kappa, heterodimerized IgG1, mutation in one H chain only; also called He Ab) heavy 1: not shown heavy 2: not shown light: DIVMTQSPLSLPVTPGEPASISCQASESLVHSNRNTYLHWYLQKPGQSPQLLIYKVSNRFSGVPDRFSGSGSGTDFTLKISRVEAEDVGVYYCSQNTHVPPTFGQGTKVEIERTVAAPSVFIFPPSDEQLKSGTASVVCLLNNFYPREAKVQWKVDNALQSGNSQESVTEQDSKDSTYSLSSTLTLSKADYEKHKVYACEVTHQGLSSPVTKSFNRGEC | 104 relative (HeCon Ab = 100) | 99.9 relative (HeCon Ab = 100) | –
GpH7-A5/GpH7-B3 variant T335_12R/GpL16-k0 (antibody, human IgG1, kappa, heterodimerized IgG1, mutation in one H chain only; also called He Ab) heavy 1: not shown heavy 2: not shown light: DIVMTQSPLSLPVTPGEPASISCQASESLVHSNRNTYLHWYLQKPGQSPQLLIYKVSNRFSGVPDRFSGSGSGTDFTLKISRVEAEDVGVYYCSQNTHVPPTFGQGTKVEIERTVAAPSVFIFPPSDEQLKSGTASVVCLLNNFYPREAKVQWKVDNALQSGNSQESVTEQDSKDSTYSLSSTLTLSKADYEKHKVYACEVTHQGLSSPVTKSFNRGEC | 100 relative (HeCon Ab = 100) | 91.9 relative (HeCon Ab = 100) | –
GpH7-A5/GpH7-B3 variant Y296_09D/GpL16-k0 (antibody, human IgG1, kappa, heterodimerized IgG1, mutation in one H chain only; also called He Ab) heavy 1: not shown heavy 2: not shown light: DIVMTQSPLSLPVTPGEPASISCQASESLVHSNRNTYLHWYLQKPGQSPQLLIYKVSNRFSGVPDRFSGSGSGTDFTLKISRVEAEDVGVYYCSQNTHVPPTFGQGTKVEIERTVAAPSVFIFPPSDEQLKSGTASVVCLLNNFYPREAKVQWKVDNALQSGNSQESVTEQDSKDSTYSLSSTLTLSKADYEKHKVYACEVTHQGLSSPVTKSFNRGEC | 106 relative (HeCon Ab = 100) | 98.9 relative (HeCon Ab = 100) | –
